Legend:
[1] = target: T1, human FcγRIIB-Ile232 on CHO-K1 cells (human, UniProt P31994 43-310); experiment: flow cytometry on CHO-huFcγRIIB cells, anti-human Fc F(ab')2
T1 construct: whole, on cells; also called CHO-K1-huFcγRIIB-Ile232; CHO-K1-huFcγRIIB
T1 sequence (looked up): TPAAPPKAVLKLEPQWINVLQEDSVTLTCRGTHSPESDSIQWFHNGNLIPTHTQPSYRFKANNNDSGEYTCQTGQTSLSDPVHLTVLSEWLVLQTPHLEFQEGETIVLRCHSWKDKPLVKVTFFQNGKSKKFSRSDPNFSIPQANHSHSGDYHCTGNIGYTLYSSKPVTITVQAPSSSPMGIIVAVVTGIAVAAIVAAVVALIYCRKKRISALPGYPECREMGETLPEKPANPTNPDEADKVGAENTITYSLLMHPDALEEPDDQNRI
Experimental: (§1) The plate was mixed and incubated in the dark for 2 hours at 4° C.

[2] = target: T2, huCD137-C6His (human, UniProt Q07011 24-186); experiment: SPR (Biacore T200), huCD137-C6His immobilised, antibody as analyte, 1:1 model, 25 °C
T2 construct: Immobilised by amine coupling on the sensor chip; also called human CD137 protein (Biacore ligand); not shown: C-terminal 6xHis tag by the name C6His
Experimental: Flow cells of a CMS sensor chip (GE Healthcare Life Sciences) were activated with freshly mixed 50 mmol/L NHS and 200 mmol/L EDC for 420 seconds (10 μL/min). Then, huCD137-C6His in 10 mmol/L NaAC (pH 5.0) was injected onto the activated flow cell (10 μL/min) with HBS-EP (10 mM HEPES, 150 mM NaCl, 3 mM EDTA and 0.05% P20, pH 7.4) as the running buffer. The remaining active coupling sites were blocked with a 420 second injection of 1 mol/L ethanolamine The measurement was performed under 25° C., and HBS-EP was used as the running buffer. An injection of a tested analyte and surface regeneration of the CMS sensor chip were included in each running cycle. […] Buffer flow was maintained for approximately 180 seconds for dissociation. To remove the tested antibodies, an injection of 10 mM glycine-HCl for approximately 30 seconds was used for regeneration. The above procedures were repeated for each concentration of serially diluted tested antibody. The raw data of the surface plasmon resonance experiments were evaluated using Biacore T200 evaluation software 3.1 with a 1:1 binding model. Flow cell 1 was used as the reference flow cell.

[3] = target: T3, human CD137 on cells (human, UniProt Q07011 24-255); experiment: flow cytometry on human PBMC pre-activated with anti-CD3, gate on CD8+ T cells (endogenous CD137)
T3 construct: whole, on cells; also called CHO-human CD137; CHO cells over-expressing human CD137
Experimental: To obtain activated T cells in human PBMC, a 24-well plate was coated with 300 μL DPBS containing 2 μg/mL AffiniPure goat anti-mouse IgG, Fcγ fragment specific at 4° C. overnight. The plate was washed 3 times with DPBS. The antibody OKT3 was added to the plate at 1 μg/mL, 100 μL/well. The plate was incubated at 37° C. for 1 hour. A freshly thawed vial of human PBMCs was transferred into a 50 mL tube containing 25 mL pre-warmed culture medium (RPMI1640 containing 10% FBS), and spun at 250 g for 10 min The cell pellet was resuspended in 2 mL complete culture medium (culture medium containing 50 uM 2-Me) and the cell density was adjusted to 3.3*10\hat{ }6 cells/mL in the complete culture medium and then 900 μL/well cell suspension was transferred to the plate. The culture was incubated at 37° C. with 5% CO₂ for about 48 hours. After the incubation, the cells were harvested and washed once with DPBS. The cell pellet was resuspended in cold assay buffer and the cell density was adjusted to 2*10\hat{ }6 cells/mL. 100 μL of the cell suspension was transferred to a 96-well v-bottom plate. […] The plate was incubated in the dark for 30 minutes at 4° C. […] After incubation in the dark for 5 minutes at 4° C., the cells were analyzed on the flow cytometer immediately.

[4] = target: T4, human FcγRI on CHO-K1 cells (human, UniProt P12314 16-374); experiment: flow cytometry on CHO-huFcγRIA cells, PE anti-human Fc F(ab')2
T4 construct: whole, on cells; also called CHO-K1-huFcγRI; CHO-huFcγRIA
Experimental: The plate was mixed and incubated in the dark for 2 hours at 4° C. […] The plate was incubated in the dark for another 1 hour at 4° C. The cells were washed 2 times by centrifugation at 1000 g for 3 min and resuspended in ice cold assay buffer containing 2% PFA.

[5] = target: T5, Ly051; experiment: ELISA, clone 3712-IgG1v coated, CD137 protein titrated (EC50 is a concentration of the CD137 protein); curve only begins to rise: about 0.42 at 100000 ng/mL, no plateau, fit marked ~
T5 chain: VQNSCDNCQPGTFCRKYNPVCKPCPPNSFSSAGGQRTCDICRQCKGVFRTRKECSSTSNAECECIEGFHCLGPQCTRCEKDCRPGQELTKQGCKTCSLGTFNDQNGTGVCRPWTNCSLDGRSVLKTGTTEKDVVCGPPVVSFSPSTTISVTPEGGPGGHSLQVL
Experimental: The plate was decanted and washed once; assay diluent was added 200 μL/well. After one-hour incubation at room temperature, the plate was washed with PBST one time. CD137 receptor human/mouse chimeras were diluted in assay diluent to 100 or 10 μg/mL, and then a 4-fold serial dilution in assay diluent for 11 points to final concentrations of 100000, 25000, 6250, 1562.5, 390.63, 97.66, 24.41, 6.10, 1.53, 0.38 and 0.095 ng/mL or 10000, 2500, 625, 156.25, 39.06, 9.77, 2.44, 0.61, 0.15, 0.038 and 0.0095 ng/mL. The diluted CD137 receptor was added to the assay plate, 50 μL/well, in duplicate. The plate was incubated one hour at room temperature and then washed three times with PBST. Goat anti-human IgG-H+L HRP conjugated at 1:100,000 20 dilution was added to the plate at 100 μL/well. The plate was then incubated one hour at room temperature followed by washing with PBST four times. The TMB substrate solution was added at 100 μL/well. The color was allowed to develop for 15 minutes, and was stopped with 100 μL/well 2N H2SO4. Absorbance at 450 nm and 620 nm was determined by a Tecan F200 Pro reader.

[6] = target: T6, human FcγRIIA-His131 on CHO-K1 cells (human, UniProt P12318 34-317); experiment: flow cytometry on CHO-huFcγRIIA-H131 cells, PE anti-human Fc F(ab')2
T6 construct: whole, on cells; Allotype His131; also called CHO-K1-huFcγRIIA-His131; CHO-huFcγRIIA-H131
T6 sequence (looked up): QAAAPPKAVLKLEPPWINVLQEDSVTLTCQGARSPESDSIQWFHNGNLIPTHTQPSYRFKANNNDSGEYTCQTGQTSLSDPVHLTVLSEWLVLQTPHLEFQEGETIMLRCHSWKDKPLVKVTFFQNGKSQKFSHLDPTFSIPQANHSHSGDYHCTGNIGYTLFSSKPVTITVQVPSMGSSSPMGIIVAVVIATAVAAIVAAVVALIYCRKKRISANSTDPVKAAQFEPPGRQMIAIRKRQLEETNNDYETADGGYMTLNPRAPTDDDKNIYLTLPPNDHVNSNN
Experimental: as §1

T2 sequence (Q07011 24-186): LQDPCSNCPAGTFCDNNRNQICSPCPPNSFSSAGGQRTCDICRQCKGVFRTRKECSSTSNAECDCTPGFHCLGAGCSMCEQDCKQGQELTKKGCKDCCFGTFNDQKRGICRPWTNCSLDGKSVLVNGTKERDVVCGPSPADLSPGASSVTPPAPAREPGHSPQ
T4 sequence (P12314 16-374): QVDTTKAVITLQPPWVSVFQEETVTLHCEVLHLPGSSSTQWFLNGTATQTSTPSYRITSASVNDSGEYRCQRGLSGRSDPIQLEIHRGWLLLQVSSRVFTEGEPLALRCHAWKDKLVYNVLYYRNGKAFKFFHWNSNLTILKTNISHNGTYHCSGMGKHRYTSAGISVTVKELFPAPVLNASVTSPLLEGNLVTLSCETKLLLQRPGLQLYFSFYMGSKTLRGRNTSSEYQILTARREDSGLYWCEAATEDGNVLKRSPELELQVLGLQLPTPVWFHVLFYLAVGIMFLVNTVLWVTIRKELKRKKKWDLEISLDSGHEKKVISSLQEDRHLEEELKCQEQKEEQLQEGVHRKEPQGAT

B1: Clone 3712-IgG1v (IgG1v/kappa) (antibody)
heavy: QVQLVQSGAEVKKPGASVKVSCKASGYTFAGFEMHWVRQAPGQGLEWMGAIDPKTGGTDYNQKFKDRVTMTRDTSISTAYMELSRLRSDDTAVYYCARDLGYFDVWGQGTLVTVSSASTKGPSVFPLAPSSKSTSGGTAALGCLVKDYFPEPVTVSWNSGALTSGVHTFPAVLQSSGLYSLSSVVTVPSSSLGTQTYICNVNHKPSNTKVDKKVEPKSCDKTHTCPPCPAPELLGPSVFLFPPKPKDTLMISRTPEVTCVVVDVEHEDPEVKFNWYVDGVEVHNAKTKPREEQYNSTYRVVSVLTVLHQDWLNGKEYKCKVSNKALPAPIEKTISKAKGQPREPQVYTLPPSREEMTKNQVSLTCLVKGFYPSDIAVEWESNGQPENNYKTTPPVLDSDGSFFLYSKLTVDKSRWQQGNVFSCSVMHEALHNHYTQKSLSLSPGK
light: DIQMTQSPSSLSASVGDRVTITCRASQDIRSNLNWYQQKPGGAVKLLIYYTSRLHSGVPSRFSGSGSGTDYTLTISSLQPEDFATYFCQQSEKLPRTFGGGTKVEIRRTVAAPSVFIFPPSDEQLKSGTASVVCLLNNFYPREAKVQWKVDNALQSGNSQESVTEQDSKDSTYSLSSTLTLSKADYEKHKVYACEVTHQGLSSPVTKSFNRGEC
notes: copies: 2 + 2
[1]
  binding result: binds
[2]
  Kd: 18.9 nM
  koff: 0.0138 s⁻¹
  kon: 730000 M⁻¹ s⁻¹
[3]
  EC50 (read off the curve): ~0.03 µg/mL
[4]
  binding result: no binding (tested: 10 µg/mL)
[5]
  EC50: ~466 µg/mL
[6]
  binding result: no binding (tested: 100 µg/mL)

Source: patent publication US20210246218A1 (LYVGEN BIOPHARMA SUZHOU, published 2021)
